In patent US20260000710A1, “Novel Treatments for Cardiovascular Related Disease” (priority 2022, published 2026):

tested on: PBMCs; assay: IFNγ ELISpot after 14-day in vitro expansion and re-stimulation; format: cell-based, human; conditions: donor 1, HLA-DR alleles with strong binding affinities for the peptide
Protocol: To do this, the inventors used the optimized IFNγ ELISpot assay (FIG. 1A) because Th1 cytokine response to APOB peptides is most robust (FIG. 9D) and easily detectable in high-throughput screens. PBMCs from HLA-typed donors (demographics and HLA-II alleles in Tables 5, 6) were incubated with the APOB20 pool for 14 days with intermittent IL-2 feeding (schematic in FIG. 11A). […] Restimulation with the APOB20 pool and with PHA-L served as positive controls, and unstimulated cells were negative controls. For each donor, APOB peptide-specific restimulation conditions were run in triplicate wells and the average number of spot-forming cells (SFCs) per 10^6 PBMCs was calculated. To determine responder frequencies, a positive response was defined based on established criteria set for detection of responses to other autoantigenic epitopes^4. (1) ≥100 spot-forming cells per 10^6 PBMCs; (2) stimulation index ≥2 (3) p≤0.01 by Student's t-test, mean response in stimulated vs unstimulated replicate wells.
Expansion of antigen-specific T cells and Enzyme-linked immunospot (ELISpot) assay. For in vitro expansion, PBMCs were plated at a density of 2×10^6 cells/ml in 24-well plates and were cultured in the presence of APOB20 and CEFX-II peptide pools. […] Wells were imaged and spot-forming cells (SFCs) were quantified using the Zeiss KS or AID (Autoimmun Diagnostika) ELISpot readers. […]

Molecule | response with pan-HLA-DR blocking antibody
TLTAFGFASADLIEI [Peptide 2] | inhibited responses

same assay, conditions: donor 2, DQ and DP binder alleles and DR non-binder alleles

Molecule | immunogenicity under HLA-DR blockade
TLTAFGFASADLIEI [Peptide 2] | remained unaffected

biological target: 28 common HLA alleles (27 from the reference set plus DPB1*03:01), purified MHC molecules; assay: competition assay, inhibition of radiolabeled ligand binding to purified HLA class II; bound = IC50 <1000 nM; conditions: not given

No. of HLA-II alleles bound | Molecule
17 alleles | ILFSYFQDLVITLPF [APOB peptide 17 (…)]
27 alleles | QLYSKFLLKAEPLAF [APOB peptide 8 (…)]
22 alleles | HFSNVFRSVMAPFTM [APOB peptide 7 (…)]
20 alleles | KIVSLIKNLLVALKD [APOB peptide 20 (…)]
25 alleles | QIHQYIMALREEYFD [APOB peptide 19 (…)]
17 alleles | LSQLQTYMIQFDQYI [APOB peptide 9 (…)]
19 alleles | KFTYLINYIQDEINT [APOB peptide 18 (…)]

Further lines, the molecule ahead of its results:

Molecule | No. of HLA-II alleles bound
VGSKLIVAMSSWLQK [APOB peptide 5 (…)] | 21 alleles
VEFVTNMGIIIPDFA [APOB peptide 4 (…)] | 18 alleles
FLHYIFMENAFELPT [APOB peptide 3 (…)] | 24 alleles
IKHIYAISSAALSAS [APOB peptide 6 (…)] | 20 alleles
TLTAFGFASADLIEI [APOB peptide 2 (…)] | 21 alleles

tested on: purified MHC molecules (28 common HLA DP, DQ and DR alleles); assay: HLA class II competition binding assay (inhibition of radiolabeled ligand binding); design: species or system human; conditions: alleles bound at <1000 nM threshold
Protocol: Peptides predicted to bind most (≥75%) of the alleles, were experimentally verified in HLA-II binding assays^31. For each peptide, the number of alleles that bound at a <1000 nM threshold level was tabulated. Top 20 promiscuous binders (bind >50% of reference alleles) were selected for further study (FIG. 9A, Table 2).
Next, the capacity of these peptides to bind 28 common HLA alleles (27 from the reference set plus DPB1*03:01) was determined experimentally using classical competition assays based on the inhibition of binding of high affinity radiolabeled ligands to purified MHC molecules^3. Under the conditions utilized, where [radiolabeled peptide] is <[MHC], and [MHC]<[inhibitor peptide], the measured IC50 values, defined as the concentrations of inhibitor peptide that inhibits the binding of the radiolabeled ligand by 50%, are reasonable estimates of true Kd values.

No. of HLA-II alleles bound | Molecule
21 | TLTAFGFASADLIEI [Peptide 2]
